Biological target: the molecule itself
Assay: SEC-MALS; gel filtration coupled with multi-angle light scattering

B1: REXO2, N-terminal-truncated (Δ28aa), wild type (enzyme, human, UniProt Q9Y3B8 29-237, looked up)
chain: GGAAMAAGESMAQRMVWVDLEMTGLDIEKDQIIEMACLITDSDLNILAEGPNLIIKQPDELLDSMSDWCKEHHGKSGLTKAVKESTITLQQAEYEFLSFVRQQTPPGLCPLAGNSVHEDKKFLDKYMPQFMKHLHYRIIDVSTVKELCRRWYPEEYEFAPKKAASHRALDDISESIKELQFYRNNIFKKKIDEKKRKIIENGENEKTVS
notes: human REXO2 (oligoribonuclease, mitochondrial), lacking the N-terminal 28 residues (Δ28aa); Crystallised with an RNA oligonucleotide and Ca2+; also called WT; wild-type REXO2; not shown: 6x His-SUMO, N-terminal, cleaved
- stoichiometry N: 2
